The values below come from patent publication US20150086574A1 (CELLERANT THERAPEUTICS, published 2015).

Where only a bound is given, the exact number is not on record here.

Experiment [1] concerns the target T cell Immunoglobulin- and Mucin domain-containing molecule 3 (TIM3), human, on cells (human) (UniProt Q8TDQ0). Put plainly: cell binding (flow cytometry), CMK cells. On the technique in general: A flow cytometer gives signals particle by particle.
For experiment [2] the target is unchanged. Put plainly: cell binding (flow cytometry), Daudi cells.
Experiment [3] shares this target. Nature of the experiment: cell binding (flow cytometry), Pfeiffer cells.
Experiment [4] has the same target. Nature of the experiment: flow cytometry, CD34+ cells from a set of AML samples.
The target is the same in experiment [5]. Put plainly: flow cytometry, PBMCs of AML patient 1, Blast population.
The target is the same in experiment [6]. Nature of the experiment: flow cytometry, PBMCs of AML patient 2, Blast population.
Experiment [7] has the same target. Put plainly: flow cytometry, PBMCs of AML patient 3, Blast population.
For experiment [8] the target is unchanged. Put plainly: flow cytometry, PBMCs of AML patient 1, CD34+CD38- population.
Experiment [9] shares this target. Nature of the experiment: flow cytometry, PBMCs of AML patient 2, CD34+CD38- population.
The target is the same in experiment [10]. Put plainly: flow cytometry, PBMCs of AML patient 3, CD34+CD38- population.
The target is the same in experiment [11]. Put plainly: flow cytometry, bone marrow cells of AML patient 2, Blast population.
For experiment [12] the target is unchanged. Nature of the experiment: flow cytometry, bone marrow cells of AML patient 2, CD34+CD38- population.
The target is the same in experiment [13]. Put plainly: flow cytometry; cells not named in the table (Example 5 uses Pfeiffer cells).
For experiment [14] the target is unchanged. Put plainly: cell-based or functional assay.
Experiment [15] shares this target. Put plainly: flow cytometry, PBMCs of AML patient 4, Blast population.
Experiment [16] shares this target. Put plainly: flow cytometry, PBMCs of AML patient 5, Blast population.
Experiment [17] shares this target. Nature of the experiment: flow cytometry, PBMCs of AML patient 4, CD34+CD38- population.
The target is the same in experiment [18]. Put plainly: flow cytometry, PBMCs of AML patient 5, CD34+CD38- population.
The target is the same in experiment [19]. Put plainly: flow cytometry, bone marrow cells of AML patient 1, Blast population.
For experiment [20] the target is unchanged. Put plainly: flow cytometry, bone marrow cells of AML patient 1, CD34+CD38- population.

Chain of T cell Immunoglobulin- and Mucin domain-containing molecule 3 (TIM3), human, on cells (human) (Q8TDQ0 22-301 limits assumed): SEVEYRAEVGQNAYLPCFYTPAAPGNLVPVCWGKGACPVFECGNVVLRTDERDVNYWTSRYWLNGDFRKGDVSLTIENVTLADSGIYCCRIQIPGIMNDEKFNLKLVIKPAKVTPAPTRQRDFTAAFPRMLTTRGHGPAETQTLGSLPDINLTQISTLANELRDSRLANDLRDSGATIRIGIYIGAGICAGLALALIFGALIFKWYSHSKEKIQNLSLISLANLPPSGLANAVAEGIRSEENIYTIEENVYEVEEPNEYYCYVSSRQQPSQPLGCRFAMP

For TIM3 2E2 (antibody), the percentage of cell binding in experiment [1] came out at 19%; in experiment [2] it was 90%; in experiment [3], 97%. The Geomean in experiment [3] was determined as 308. Also, the Positive/total (AML samples whose CD34+ cells were bound) (of 14 samples) in experiment [4] is 0. The percent binding in experiment [5] was determined as 2.92%; in experiment [6] it was 59.3%; in [7], 1.01%; in experiment [8], 3.26%; in [9], 64.8%; in experiment [10] it was 0.17%. In addition, the percent binding worked out at 1.8% in experiment [11] and 1.6% in experiment [12]. In [13], this molecule returned a % Positive for TIM3 of 89.9%. The molecule further gave a GeoMean (Intensity of TIM3 binding) in [13] of 198.

B1: 8.16C10 (antibody, IgG1, V domains shown)
VH: QIQLQQSGPELVKPGASVKISYKASGYTFTDYYINWVKQKPGQGLEWIGWIYPGSGITKYNEKFKGKATLTVDSSSSTAYMQLSSLTSEDTAVYFCAIYGYDGGYAMDYWGQGTSVTVSS
VL: QIVLTQSPAIMSASPGEKVTLTCSASSSVSSSYLYWYQQKPGSSPKLWIYSTSNLASGVPARFSGGGSGTSYSLTISSMEAEDAASYFCHQWSTYPYTFGGGTKLEIKR
B1 came in with an IFN-gamma release from activated CD4+ T cells (ELISA), antibody at 5 ug/ml (fold reduction) in experiment [14] of over 2. The molecule further yielded an IL-6 release from activated CD4+ T cells (ELISA), antibody at 5 ug/ml (fold reduction) in experiment [14] of over 2. The molecule also displayed a percent of antibody internalized after 20 minutes, Pfeiffer cells in [14] of over 50%. In addition, the percentage of cell binding came out at 67% in [2] and 85% in [3]. In addition, the percent binding in experiment [5] came out at 3.13%; in experiment [6], 68.1%; in [7], 0.83%; in [15] it was 78%; in experiment [16], 25%; in experiment [8], 4.67%. Moreover, the percent binding stood at 76.4% in experiment [9]; 0.49% in experiment [10]; 87% in experiment [17]; 25% in [18]; 55.6% in experiment [19]; 2.61% in experiment [11]. The results for the percent binding in experiment [20] and in experiment [12] were 19.2% and 1.47%, respectively. Also, the % Positive for TIM3 in [13] stood at 92.5%. In experiment [13], this molecule returned a GeoMean (Intensity of TIM3 binding) of 83.8.
